From PMC12316933 (2025)

Legend:
Assay in all cases: BLI
[1] = biological target: T1, PT09 N2 (recombinant N2 neuraminidase head of H3N2 A/Perth/16/2009) (Influenza A virus H3N2 A/Perth/16/2009)
T1 chain: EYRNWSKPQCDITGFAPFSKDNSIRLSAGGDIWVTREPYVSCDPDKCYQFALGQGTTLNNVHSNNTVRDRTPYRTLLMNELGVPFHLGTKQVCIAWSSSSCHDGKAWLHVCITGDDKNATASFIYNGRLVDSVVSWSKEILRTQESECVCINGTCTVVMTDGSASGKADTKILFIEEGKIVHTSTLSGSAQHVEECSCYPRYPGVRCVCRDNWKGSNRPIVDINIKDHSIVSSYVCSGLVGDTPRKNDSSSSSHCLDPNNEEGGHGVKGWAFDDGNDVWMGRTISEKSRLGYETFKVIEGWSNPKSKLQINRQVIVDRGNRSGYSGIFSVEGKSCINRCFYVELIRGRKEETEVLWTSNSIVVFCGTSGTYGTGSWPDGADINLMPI

[2] = biological target: CO17 B NA (recombinant neuraminidase head of B/Colorado/06/2017, B/Victoria-lineage) (Influenza B virus B/Colorado/06/2017)
[3] = biological target: IN11 N2 (recombinant N2 neuraminidase head of H3N2 A/Indiana/08/2011) (Influenza A virus H3N2 A/Indiana/08/2011)

B1: DA03E17 IgG (human monoclonal antibody) (antibody, V domains shown)
VH: EVQLVESGPGLVKPSQTLSLTCTVSGGSFSSGGYLWSWVRQHPGKGLEWIGYILYSGSPYYNPSLESRATISLDTSKNQFSLRLISVTAADAAMYYCARVDGSGNTDRYYFYGMDVWGQGTMVTVSS
VL: DIQMTQSPSSVSASVGDRVTITCRASRGIGDWLAWYQQKPGKAPKLLIYAASSLQRGVPSRFSGSGSGTDFTLTISSLQPDDFATYYCQQADGWEVWTFGQGTKVDVK
[1]
  Kd: < 0.001 nM
[2]
  Kd: 0.969 nM
[3]
  Kd: < 0.001 nM

B2: DA03E17 Fab (Fab, V domains shown)
VH: EVQLVESGPGLVKPSQTLSLTCTVSGGSFSSGGYLWSWVRQHPGKGLEWIGYILYSGSPYYNPSLESRATISLDTSKNQFSLRLISVTAADAAMYYCARVDGSGNTDRYYFYGMDVWGQGTMVTVSS
VL: DIQMTQSPSSVSASVGDRVTITCRASRGIGDWLAWYQQKPGKAPKLLIYAASSLQRGVPSRFSGSGSGTDFTLTISSLQPDDFATYYCQQADGWEVWTFGQGTKVDVK
[1]
  Kd: 31 nM
[2]
  Kd: 913 nM
[3]
  Kd: 4.53 nM
